Source: paper PMC8071376

Legend:
[1] = tested on: RelB (untagged, in RelB:RelE-His6 complex);RelE-His6 (Streptococcus pneumoniae R6;Streptococcus pneumoniae R6); assay: DNase I footprinting; conditions: DNase I footprinting: 40 mM Tris-HCl pH 7.9, 6 mM MgCl2, 1 mM CaCl2, 10 mM NaCl plus 100 mM NaCl, 1 mM DTT, 10% glycerol, 10 ug/mL heparin or 50 ng …
[2] = tested on: His6-RelB (Streptococcus pneumoniae R6); assay: DNase I footprinting; conditions: DNase I footprinting: 40 mM Tris-HCl pH 7.9, 6 mM MgCl2, 1 mM CaCl2, 10 mM NaCl plus 100 mM NaCl, 1 mM DTT, 10% glycerol, 10 ug/mL heparin or 50 ng …

In the case of PrelBE 199-bp promoter fragment, the binding [1] is reported as 1 µM and the binding [2] is reported as 10 µM.
